The target of one assay is activated Factor IX. The experiment in a line: direct ELISA, FIXa coated at 5 ug/ml, positive control antibody specific for the antigen, concentration not given.
The next assay has as its target activated Factor X. Description: direct ELISA, FXa coated at 10 ug/ml, positive control antibody specific for the antigen, concentration not given. (In general: ELISA stands for enzyme-linked immunosorbent assay.)
Assay [1] deals with T1, dog Protein C (zymogen) (dog, UniProt Q28278 43-456).
T1 construct: mature; also called dog PC
T1 sequence (looked up): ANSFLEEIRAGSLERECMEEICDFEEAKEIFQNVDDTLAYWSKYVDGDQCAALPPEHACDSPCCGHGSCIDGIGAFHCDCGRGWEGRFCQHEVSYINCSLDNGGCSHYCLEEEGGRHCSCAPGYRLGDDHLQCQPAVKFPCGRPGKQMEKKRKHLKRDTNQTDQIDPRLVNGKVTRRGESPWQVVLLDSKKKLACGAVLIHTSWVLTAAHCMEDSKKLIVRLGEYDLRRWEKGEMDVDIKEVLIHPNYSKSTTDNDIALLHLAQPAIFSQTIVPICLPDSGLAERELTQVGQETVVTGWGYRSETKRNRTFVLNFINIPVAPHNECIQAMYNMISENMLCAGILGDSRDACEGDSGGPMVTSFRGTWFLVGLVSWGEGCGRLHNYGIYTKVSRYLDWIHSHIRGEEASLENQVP
Description: direct ELISA, dPC coated at 10 ug/ml, positive control antibody specific for the antigen, concentration not given.

Assay [2] concerns the target T2, human activated Protein C (human, UniProt P04070 43-461). The experiment in a line: direct ELISA, hAPC coated at 1 ug/ml, positive control antibody specific for the antigen, concentration not given.
The target of assay [3] is T3, mouse Protein C (zymogen) (mouse, UniProt P33587 42-460).
T3 construct: mature; also called mouse PC
T3 sequence (looked up): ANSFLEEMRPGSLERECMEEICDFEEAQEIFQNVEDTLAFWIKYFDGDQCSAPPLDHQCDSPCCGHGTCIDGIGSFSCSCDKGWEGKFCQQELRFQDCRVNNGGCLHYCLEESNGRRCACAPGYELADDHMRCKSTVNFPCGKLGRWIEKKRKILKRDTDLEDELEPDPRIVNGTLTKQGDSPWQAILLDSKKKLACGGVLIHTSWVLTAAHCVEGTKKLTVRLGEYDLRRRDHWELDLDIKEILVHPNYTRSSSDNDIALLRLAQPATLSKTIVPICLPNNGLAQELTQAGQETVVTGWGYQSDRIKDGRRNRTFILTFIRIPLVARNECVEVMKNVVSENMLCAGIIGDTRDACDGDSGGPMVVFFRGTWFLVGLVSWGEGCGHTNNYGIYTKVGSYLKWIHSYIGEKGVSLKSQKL
Description: direct ELISA, mPC coated at 10 ug/ml, positive control antibody specific for the antigen, concentration not given.

Assay [4] deals with activated Factor II (thrombin) (Homo sapiens (Human)) (UniProt P00734). The experiment in a line: direct ELISA, FIIa coated at 10 ug/ml, positive control antibody specific for the antigen, concentration not given.
In another assay the target is activated Factor VII. Description: direct ELISA, FVIIa coated at 10 ug/ml, positive control antibody specific for the antigen, concentration not given.
For assay [5], the target named is T2, human activated Protein C. The experiment in a line: ELISA titration.
For assay [6], the target named is T2, human activated Protein C. Description: Biacore, Fab. (Surface plasmon resonance follows binding to a sensor surface in real time, without labels.)
Assay [7] has as its target T2, human activated Protein C. Description: direct ELISA, antigen coated, Fab.
Assay [8] concerns the target T1, dog Protein C (zymogen). Description: direct ELISA, dPC coated at 10 ug/ml, Fab at 20 nM, anti-human Fab-HRP, AmplexRed (RFU). As for the experimental part:
(§1) To determine the binding selectivity of these fabs, their binding activities to the proenzyme human PC, to thrombin (FIIa), and to the activated Factor II (FIIa, thrombin), Factor VII (FVIIa), Factor IX (FIXa), and Factor X (FXa) were also assessed by ELISA. Briefly, an ELISA plate was coated with human aPC at 1 ug/ml, mouse PC at 10 ug/ml, dog PC at 10 ug/ml, other coagulation factors (FIIa, FVIIa, FIXa, FXa) at 5-10 ug/ml. Anti-aPC Fabs were added to the wells at 20 nM (1 ug/ml). Bound Fabs were detected by the secondary antibody (anti-human Fab-HRP) followed by HRP substrate AmplexRed.

In assay [9] the target is T3, mouse Protein C (zymogen). The experiment in a line: direct ELISA, mPC coated at 10 ug/ml, Fab at 20 nM, anti-human Fab-HRP, AmplexRed (RFU). As for the experimental part:
as §1

The target in assay [10] is T4, human Protein C (zymogen) (human, UniProt P04070 43-461).
T4 construct: also called human PC; hPC
The experiment in a line: direct ELISA, antigen coated at 100 ng/well, Fab at 20 nM (1 ug/ml), anti-human Fab-HRP, AmplexRed (RFU). On the procedure: (§2) FIG. 3 depicts a graph characterizing anti-APC Fabs by direct ELISA. An ELISA plate was coated with human PC (hPC), human aPC (hAPC), dog aPC (dAPC), mouse aPC (mAPC) at 100 ng per well. Purified Fabs designate on the X-axis were added to the plate at 20 nM (1 ug/ml). Bound Fab was detected by the secondary antibody (anti-human Fab-HRP) followed by HRP substrate AmplexRed. The purified Fabs preferentially bind to human aPC and, with the exception of Fab R41C17, show little to no binding to human PC.
(§3) Antigens were coated directly on ELISA plates. Coating antigens included human PC (plasma-derived), human aPC (recombinant), dog aPC (plasma-derived), and mouse aPC (recombinant) at 100 ng/well in PBS/Ca buffer. After blocking the plate with 5% milk/PBS and washing the plate with PBS-Tween20, soluble Fabs (1 ug/ml, 20 nM) were added to the plate and incubated for 1 h at RT with shaking. Fab binding was detected with anti-human Fab (lambda) antibody-HRP and Amplex red as substrate. […] In contrast, R41C17 binds to both human APC and human PC. Also shown in FIG. 3 is cross-species reactivity of Fabs by ELISA.

The target of assay [11] is T5, dog activated Protein C (dog, UniProt Q28278 43-456).
T5 construct: mature; also called dog aPC; dAPC
T5 sequence (looked up): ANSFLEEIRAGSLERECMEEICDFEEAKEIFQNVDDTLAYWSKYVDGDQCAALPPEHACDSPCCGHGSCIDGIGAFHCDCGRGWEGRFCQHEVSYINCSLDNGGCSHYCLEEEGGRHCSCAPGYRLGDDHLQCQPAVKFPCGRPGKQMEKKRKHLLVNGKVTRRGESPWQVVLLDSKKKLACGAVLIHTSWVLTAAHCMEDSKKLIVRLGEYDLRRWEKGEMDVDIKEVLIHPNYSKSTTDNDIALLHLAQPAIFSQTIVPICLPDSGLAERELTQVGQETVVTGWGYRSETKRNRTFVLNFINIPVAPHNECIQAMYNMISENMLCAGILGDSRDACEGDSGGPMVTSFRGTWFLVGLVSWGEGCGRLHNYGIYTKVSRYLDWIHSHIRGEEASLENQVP
The description is as above. On the procedure:
as §2, §3

For assay [12], the target named is rabbit activated Protein C (rabbit) (UniProt Q28661). Description: ELISA, hIgG1.
For assay [13], the target named is mouse activated Protein C (mouse) (UniProt P33587). The experiment in a line: direct ELISA, hIgG1.
In assay [14] the target is rabbit activated Protein C (rabbit) (UniProt Q28661). The experiment in a line: cell-based or functional assay.
Assay [15] addresses T2, human activated Protein C. The experiment in a line: ELISA, hIgG1.
For assay [16], the target named is T5, dog activated Protein C. The experiment in a line: ELISA, hIgG1.
For assay [17], the target named is T2, human activated Protein C. The experiment in a line: cell-based or functional assay.
For assay [18], the target named is mouse activated Protein C (mouse) (UniProt P33587). Description: direct ELISA, aPC coated, hIgG1.
The target of assay [19] is rabbit activated Protein C (rabbit) (UniProt Q28661). The experiment in a line: direct ELISA, aPC coated, hIgG1.
The target in assay [20] is T2, human activated Protein C. The experiment in a line: cell-based or functional assay. The source holds these as a separate data set.
For assay [21], the target named is T5, dog activated Protein C. The experiment in a line: cell-based or functional assay.
The target of assay [22] is T1, dog Protein C (zymogen). Description: direct ELISA, antigen coated.
The target of assay [23] is T2, human activated Protein C. The experiment in a line: direct ELISA, aPC coated, hIgG1.
The target in assay [24] is T5, dog activated Protein C. Description: direct ELISA, aPC coated, hIgG1.
Assay [25] addresses T2, human activated Protein C. Description: cell-based or functional assay. This is another data set of the same source.
Assay [26] deals with T5, dog activated Protein C. Description: Biacore, Fab.
The target of assay [27] is T5, dog activated Protein C. The experiment in a line: direct ELISA, antigen coated, Fab.
The target of assay [28] is T5, dog activated Protein C. Description: ELISA and Biacore, as the sentence says.

Numbering of substitutions follows the chain as printed.

Chain of activated Factor VII (P08709 61-212, chain 1 of 2): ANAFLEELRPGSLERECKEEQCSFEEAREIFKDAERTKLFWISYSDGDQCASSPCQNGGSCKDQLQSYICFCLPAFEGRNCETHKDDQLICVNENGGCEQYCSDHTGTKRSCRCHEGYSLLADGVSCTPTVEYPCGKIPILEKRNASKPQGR
Chain of activated Factor VII (P08709 213-466, chain 2 of 2): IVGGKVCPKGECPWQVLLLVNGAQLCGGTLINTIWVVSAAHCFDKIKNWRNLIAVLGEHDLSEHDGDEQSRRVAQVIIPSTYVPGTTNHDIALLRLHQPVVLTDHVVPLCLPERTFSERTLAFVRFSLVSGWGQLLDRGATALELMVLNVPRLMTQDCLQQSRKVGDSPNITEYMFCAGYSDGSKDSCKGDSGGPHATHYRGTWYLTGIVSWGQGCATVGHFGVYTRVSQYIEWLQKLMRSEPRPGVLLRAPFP
Chain of activated Factor X (P00742 41-179, chain 1 of 2): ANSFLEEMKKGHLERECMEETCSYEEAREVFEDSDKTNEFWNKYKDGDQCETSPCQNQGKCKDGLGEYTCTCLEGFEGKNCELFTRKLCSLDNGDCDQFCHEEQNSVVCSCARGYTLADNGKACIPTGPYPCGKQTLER
Chain of activated Factor X (P00742 235-488, chain 2 of 2): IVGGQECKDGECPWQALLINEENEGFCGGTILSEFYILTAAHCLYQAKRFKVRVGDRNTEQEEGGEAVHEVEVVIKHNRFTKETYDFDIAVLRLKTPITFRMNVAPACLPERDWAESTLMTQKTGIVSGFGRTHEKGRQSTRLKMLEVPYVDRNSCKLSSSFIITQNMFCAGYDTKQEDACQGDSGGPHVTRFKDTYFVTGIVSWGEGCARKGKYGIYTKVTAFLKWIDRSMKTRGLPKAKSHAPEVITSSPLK

“control Ab (specific for each antigen) (antibody)”: the RFU was 7370 RFU with activated Factor IX; 6460 RFU with activated Factor X; 476 RFU in the assay with dog Protein C (zymogen) [1]; 11700 RFU in assay [2]; 331 RFU in [3]; 6050 RFU in assay [4]. In addition, in the assay with activated Factor VII, the RFU worked out at 10300 RFU.

B1: R41E3 Fab (Fab, V domains shown)
VH: EVQLLESGGGLVQPGGSLRLSCAASGFTFNNYAMTWVRQAPGKGLEWVSGVSWNGSRTHYADSVKGRFTISRDNSKNTLYLQMNSLRAEDTAVYYCARADSSSAGRWAGSLDYWGQGTLVTVTS
VL: LTQPPSASGTPGQRVTISCSGSSSNIGNNAVNWYQQLPGTAPKLLIYSNNQRPSGVPDRFSGSKSGTSASLAISGLRSEDEADYYCSSYTSSSTHVVFGGGTKLTVLG
notes: Human Fab (lambda), expressed in E. coli
As for B1, the EC50 was 104 nM in assay [5] and 10.4 nM in assay [7]. The molecule further showed a Kd in assay [6] of 11 nM. In addition, the binding result (with dog Protein C (zymogen) [8]; in assay [9]; in [10]; in the assay with dog activated Protein C [11]) was “no binding (tested: 20 nM)” each time.

B2: T46J23-hIgG1 (antibody, V domains shown)
VH: EVQLLESGGGLVQPGGSLRLSCAASGFTFGNHWMTWVRQAPGKGLEWVSGVSWNGSRTHYADSVKGRFTISRDNSKNTLYLQMNSLRAEDTAVYYCALTGRSGWMRFPNWFDPWGQGTLVTVTS
VL: LTQPPSASGTPGQRVTISCTGTSSNIGAGYDVHWYQQLPGTAPKLLIYDNNNRPSGVPDRFSGSKSGTSASLAISGLRSEDEADYYCAAWDDSLNGVVFGGGTKLTVLG
notes: also called T46J23-IgG
With B2, the EC50 stood at 1.7 nM in assay [12]; 6 nM in assay [13]; 2.2 nM in assay [15]; 1.7 nM with dog activated Protein C [16]; 4.6 nM in assay [18]; 7 nM in assay [19]. Moreover, the values for the 50% effective concentration (EC50) (in [23]; in the assay with dog activated Protein C [24]) were 2.18 nM and 1.68 nM, respectively. In addition, the Anti-aPC IC50 (nM), Amidolytic activity worked out at 17 nM in assay [14], 18 nM in assay [20] and 625 nM with dog activated Protein C [21]. In addition, in assay [17], the “aPTT, inhibition of aPC activity at 1 ug/ml IgG (1:1 molar ratio)” value was around 50%. Also, the binding result in the assay with dog Protein C (zymogen) [22] was “no binding”. Further, the “IC50 (read off the curve), amidolytic activity of human aPC [b]” value in assay [25] was around 8 nM.

B3: T46J23 Fab (Fab, V domains shown)
VH: B2 VH
VL: B2 VL
notes: as for B1
In the case of B3, the figures for the Kd (in assay [6]; with dog activated Protein C [26]; in the assay with dog activated Protein C [28]) were 4.1 nM, 21 nM and 22 nM, respectively. Also, the EC50 in [7] was 6.7 nM; with dog activated Protein C [27], 16.6 nM. Further, in the assay with dog Protein C (zymogen) [8], the binding result is “no binding (tested: 20 nM)”.

B4: Variant 2312 (modified C25K23 IgG) (antibody, V domains shown)
VH: B2 VH with G30S, N31S, H32Y, T35S, S56A, T123S
VL: QSVLTQPPSVSGAPGQRVTISCTGSSSNIGAAYDVHWYQQLPGTAPKLLIYGNNKRPSGVPDRFSGSKSGTSASLAITGLQAEDEADYYCQSYDSSLSGSVFGGGTKLTVLG
Take B4: the “IC50 (read off the curve), amidolytic activity of human aPC [b]” value in assay [25] is around 10 nM.

For orientation: EC50 means the concentration that produces a half-maximal response. For orientation: Kd means the free concentration of one partner at which half of the binding sites on the other are occupied at equilibrium, for simple one-to-one binding. Lower therefore signals higher affinity.

(Values after patent US20150307625A1 (Bayer, published 2015).)
